Experimental data from publication PMC11213201 (2024).

B1: ZFYVE21-FLAG [not stated] / LC3B [human (endogenous in HUVEC)] (parent complex)
chain 1: MSSEVSARRDAKKLVRSPSGLRMVPEHRAFGSPFGLEEPQWVPDKECRRCMQCDAKFDFLTRKHHCRRCGKCFCDRCCSQKVPLRRMCFVDPVRQCAECALVSLKEAEFYDKQLKVLLSGATFLVTFGNSEKPETMTCRLSNNQRYLFLDGDSHYEIEIVHISTVQILTEGFPPGGGNARATGMFLQYTVPGTEGVTQLKLTVVEDVTVGRRQAVAWLVAMHKAAKLLYESRDQ
chain 2: not shown

Variants of: B1
Experiment: FLAG co-IP and Western blot (densitometry); transduced HUVECs; read off a plot

Variant	response
chain 1 L60A	~0.078 Fold Change LC3-II
chain 1 F57A	~0.17 Fold Change LC3-II
chain 1 L149A	~0.092 Fold Change LC3-II
chain 1 Y146A	~0.036 Fold Change LC3-II
